Literature values as cited in article PMC7232523.

Tests used:
IL-4Ra (Homo sapiens) = IL-4Ra (Homo sapiens) (UniProt P24394)
[1] = biological target: IL-13Ra1/IL-4Ra (Homo sapiens) (UniProt P78552)
Sequence of UniProt P78552 (P78552 22-343, chain 1 of 2): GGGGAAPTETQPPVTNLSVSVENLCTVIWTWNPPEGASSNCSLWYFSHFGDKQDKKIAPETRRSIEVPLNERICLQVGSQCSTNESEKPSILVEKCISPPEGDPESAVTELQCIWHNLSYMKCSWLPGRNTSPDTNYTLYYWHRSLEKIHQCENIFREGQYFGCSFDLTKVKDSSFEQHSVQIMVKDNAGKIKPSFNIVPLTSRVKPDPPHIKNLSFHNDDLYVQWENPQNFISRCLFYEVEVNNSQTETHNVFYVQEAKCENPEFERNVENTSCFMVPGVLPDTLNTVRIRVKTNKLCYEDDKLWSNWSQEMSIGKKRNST
Sequence of UniProt P78552 (P24394 26-232, chain 2 of 2, further chain): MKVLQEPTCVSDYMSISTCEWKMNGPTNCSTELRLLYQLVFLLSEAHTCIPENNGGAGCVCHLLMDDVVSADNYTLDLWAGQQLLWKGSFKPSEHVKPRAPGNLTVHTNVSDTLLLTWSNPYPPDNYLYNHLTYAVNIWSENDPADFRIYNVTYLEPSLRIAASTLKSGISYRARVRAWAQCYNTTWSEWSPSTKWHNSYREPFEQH

Sequence of UniProt P24394 (P24394 26-232): as the sequence (P24394 26-232, chain 2 of 2, further chain) above

Row | Substance | Kd (IL-4Ra (Homo sapiens)) [nM] | Kd [1] [nM]
1 | IL-4 (from UniProt P05112) | 0.1 | 
2 | IL-13 (from UniProt P35225) |  | 0.035
